Results on 9 substances are retold here after PMC2522368 (Molecular cell, 2008).

The target of one experiment is talin-RM (1654-2344) (UniProt P26039). Description: SPR.
Experiment [1] deals with PIPKIγ peptide (Mus musculus) (UniProt O70161). The following applies: cited from earlier work.
The target of the next experiment is talin-R4 (1654-1848) (UniProt P26039). In words: SPR.
The target in the next experiment is talin-R6-R8 (1984-2344) (UniProt P26039). Description: SPR. (In SPR one partner is held on a chip, and binding of the other changes the refractive index at the surface.)
The target in another experiment is talin-H (Mus musculus, UniProt P26039). In words: SPR, lipid immobilised on biotin chip, talin-H injected. It counts as binding. Particulars: labelled compound; 10 mM Hepes, pH 7.4, 37 °C.
Sequence of talin-H (P26039 1-433): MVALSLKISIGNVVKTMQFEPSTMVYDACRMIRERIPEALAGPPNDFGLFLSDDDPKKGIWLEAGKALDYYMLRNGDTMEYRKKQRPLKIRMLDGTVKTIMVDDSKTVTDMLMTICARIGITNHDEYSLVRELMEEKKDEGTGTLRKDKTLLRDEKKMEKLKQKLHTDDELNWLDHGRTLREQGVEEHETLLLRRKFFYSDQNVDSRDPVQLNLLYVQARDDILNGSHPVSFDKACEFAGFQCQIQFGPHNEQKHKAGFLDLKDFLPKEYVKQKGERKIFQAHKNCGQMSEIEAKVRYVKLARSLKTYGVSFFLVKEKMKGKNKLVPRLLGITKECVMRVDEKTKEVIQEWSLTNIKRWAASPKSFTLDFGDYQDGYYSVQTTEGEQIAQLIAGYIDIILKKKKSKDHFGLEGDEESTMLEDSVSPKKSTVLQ

Sequence of talin-RM (1654-2344) (P26039 1654-2344): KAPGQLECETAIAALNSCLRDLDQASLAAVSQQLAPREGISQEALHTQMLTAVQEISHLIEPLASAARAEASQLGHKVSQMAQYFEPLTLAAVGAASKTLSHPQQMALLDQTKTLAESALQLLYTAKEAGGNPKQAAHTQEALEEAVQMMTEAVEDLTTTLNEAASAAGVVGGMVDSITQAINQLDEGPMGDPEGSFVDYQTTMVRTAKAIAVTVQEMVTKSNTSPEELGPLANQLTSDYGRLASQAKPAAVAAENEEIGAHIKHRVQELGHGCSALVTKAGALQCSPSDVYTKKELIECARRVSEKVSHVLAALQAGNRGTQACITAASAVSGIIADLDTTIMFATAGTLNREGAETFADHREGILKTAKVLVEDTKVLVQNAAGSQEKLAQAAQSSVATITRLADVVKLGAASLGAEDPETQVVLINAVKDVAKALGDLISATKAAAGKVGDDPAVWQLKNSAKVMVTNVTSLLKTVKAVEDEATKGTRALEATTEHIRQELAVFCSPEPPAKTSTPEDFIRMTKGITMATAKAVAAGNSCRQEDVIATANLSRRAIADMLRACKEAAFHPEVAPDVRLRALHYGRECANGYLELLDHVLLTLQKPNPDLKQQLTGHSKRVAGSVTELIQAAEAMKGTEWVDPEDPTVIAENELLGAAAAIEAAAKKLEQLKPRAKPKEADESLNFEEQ
Sequence of PIPKIγ peptide (Mus musculus) (O70161 whole entry): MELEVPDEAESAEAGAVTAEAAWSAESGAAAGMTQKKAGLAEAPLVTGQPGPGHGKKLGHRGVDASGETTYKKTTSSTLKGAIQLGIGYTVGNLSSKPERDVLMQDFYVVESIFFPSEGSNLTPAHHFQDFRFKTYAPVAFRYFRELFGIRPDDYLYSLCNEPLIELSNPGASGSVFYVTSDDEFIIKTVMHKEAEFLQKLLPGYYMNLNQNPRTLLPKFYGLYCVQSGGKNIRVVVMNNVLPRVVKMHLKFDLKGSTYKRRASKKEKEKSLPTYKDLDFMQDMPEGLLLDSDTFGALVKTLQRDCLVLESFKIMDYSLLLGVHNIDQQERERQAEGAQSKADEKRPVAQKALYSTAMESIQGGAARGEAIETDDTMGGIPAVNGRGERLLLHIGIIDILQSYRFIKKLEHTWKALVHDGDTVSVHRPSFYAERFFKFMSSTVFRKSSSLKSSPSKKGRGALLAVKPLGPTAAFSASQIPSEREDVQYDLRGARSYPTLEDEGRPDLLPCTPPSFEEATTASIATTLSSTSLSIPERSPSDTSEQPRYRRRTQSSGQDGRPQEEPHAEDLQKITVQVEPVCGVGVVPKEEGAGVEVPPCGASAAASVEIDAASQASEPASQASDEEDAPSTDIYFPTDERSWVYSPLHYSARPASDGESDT
Sequence of talin-R6-R8 (1984-2344) (P26039 1984-2344): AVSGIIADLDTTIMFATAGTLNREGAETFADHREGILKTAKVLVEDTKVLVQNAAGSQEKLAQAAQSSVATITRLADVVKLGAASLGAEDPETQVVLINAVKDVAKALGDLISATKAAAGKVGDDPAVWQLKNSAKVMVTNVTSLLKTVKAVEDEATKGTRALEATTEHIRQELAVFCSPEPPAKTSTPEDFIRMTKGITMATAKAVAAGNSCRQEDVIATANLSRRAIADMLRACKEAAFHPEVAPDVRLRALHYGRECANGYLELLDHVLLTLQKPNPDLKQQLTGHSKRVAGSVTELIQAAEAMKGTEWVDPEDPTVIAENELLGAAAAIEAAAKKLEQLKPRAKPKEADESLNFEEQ
Sequence of talin-PTB PTB (P26039 309-405): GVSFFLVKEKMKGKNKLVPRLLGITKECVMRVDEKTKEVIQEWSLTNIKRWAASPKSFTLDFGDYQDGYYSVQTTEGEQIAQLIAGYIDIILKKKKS
Sequence of talin-R4 (1654-1848) (P26039 1654-1848): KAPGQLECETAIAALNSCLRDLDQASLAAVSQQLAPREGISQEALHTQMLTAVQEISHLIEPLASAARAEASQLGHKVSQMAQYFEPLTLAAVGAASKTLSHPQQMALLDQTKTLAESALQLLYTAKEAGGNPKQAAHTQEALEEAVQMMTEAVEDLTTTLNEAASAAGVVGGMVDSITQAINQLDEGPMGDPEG

“talin-PTB S365D (from UniProt P26039 306-405) (domain or fragment)” yielded a Kd with talin-RM (1654-2344) of 1660 µM.
In the experiment with talin-RM (1654-2344), “talin-PTB W359A (from UniProt P26039 306-405) (domain or fragment)” gave a dissociation constant (Kd) of 0.529 µM.
In the case of talin-PTB PTB (from UniProt P26039), the Kd in experiment [1] was 0.27 µM.
Consider “WT talin-PTB (talin-F3/PTB, 306-405) (from UniProt P26039 306-405) (domain or fragment)”, for which the dissociation constant (Kd) amounted to 3.6 µM in the experiment with talin-R4 (1654-1848), 78 µM in the experiment with talin-R6-R8 (1984-2344) and 0.577 µM in the experiment with talin-RM (1654-2344).
Substance “talin-PTB S379R (from UniProt P26039 306-405) (domain or fragment)” displayed a dissociation constant Kd with talin-RM (1654-2344) of 625 µM.
Same read-out and setting: to “talin-PTB M319A (from UniProt P26039 306-405) (domain or fragment)” belongs 80.9 µM.
Turning to biotinylated C6-PIP2, on talin-H, the dissociation constant (Kd) was around 0.0892 µM.
In the case of “talin-PTB L325R (from UniProt P26039 306-405) (domain or fragment)”, the equilibrium dissociation constant (Kd) in the experiment with talin-RM (1654-2344) worked out at 0.667 µM.
Same read-out and setting: the value for “talin-PTB Q381V (from UniProt P26039 306-405) (domain or fragment)” was 314 µM.

The term Kd denotes a measure of binding affinity in units of concentration.
